The source of these data is paper PMC9011732.

In test [1] the target is monomeric wild-type RBD (319-541) of the SARS-CoV-2 spike (S)-protein (SARS-CoV-2 (Wuhan-Hu-1 isolate)) (UniProt P0DTC2). Briefly: SEC.
The target in test [2] is tRBD-TA, truncated RBD (319-537) with T323 mutated to alanine (SARS-CoV-2 (Wuhan-Hu-1 isolate)) (UniProt P0DTC2). Description: SEC. In general terms: SEC sorts molecules by how far they enter the pores of the column.

In the case of “monomeric wild-type RBD (319-541) of the SARS-CoV-2 spike (S)-protein (from UniProt P0DTC2 319-541) (domain or fragment)”, in test [1], the proportion of dimer in the preparation lay in the range of 20 to 25% and the stoichiometry N (as a rule, the number of molecules, sites or subunits per partner or assembly) was 2.
With “tRBD-TA, truncated RBD (319-537) with T323 mutated to alanine (from UniProt P0DTC2 319-537) (domain or fragment)”, in test [2], the percent of the protein dimerized after 7 days at 25°C worked out at 10% and the proportion of dimer in the preparation lay in the range of 25 to 28%.
